Results as given in patent publication US20260216374.

System: Human POU5F1B (HA-tagged, overexpressed in SW480 cells)

ZDHHC-17 palmitoyl transferase, sequence (chain, as listed by the source): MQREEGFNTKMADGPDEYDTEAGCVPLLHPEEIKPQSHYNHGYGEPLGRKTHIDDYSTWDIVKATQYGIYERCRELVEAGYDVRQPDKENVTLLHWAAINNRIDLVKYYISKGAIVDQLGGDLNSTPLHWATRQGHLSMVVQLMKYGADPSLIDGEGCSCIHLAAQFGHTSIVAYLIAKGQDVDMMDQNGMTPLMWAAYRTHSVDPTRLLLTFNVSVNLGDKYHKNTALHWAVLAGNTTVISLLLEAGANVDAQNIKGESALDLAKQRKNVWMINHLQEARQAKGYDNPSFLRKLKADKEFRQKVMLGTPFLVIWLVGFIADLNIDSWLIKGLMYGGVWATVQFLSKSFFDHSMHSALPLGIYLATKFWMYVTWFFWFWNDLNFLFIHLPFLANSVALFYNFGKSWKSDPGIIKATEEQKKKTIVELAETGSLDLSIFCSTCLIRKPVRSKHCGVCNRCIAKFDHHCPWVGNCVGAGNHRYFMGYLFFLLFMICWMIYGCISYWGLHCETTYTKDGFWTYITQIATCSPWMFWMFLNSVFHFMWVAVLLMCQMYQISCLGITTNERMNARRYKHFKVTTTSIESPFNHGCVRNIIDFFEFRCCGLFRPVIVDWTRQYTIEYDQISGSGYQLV

Substance: ZDHHC-17 palmitoyl transferase
- DRM association of POU5F1B upon ZDHHC-17 knockdown: POU5F1B dissociates from DRMs upon ZDHHC-17 knockdown
